Source: US20120201828A1 (Sanofi, published 2012)
Positions count from the first letter of the chain named.

B1: hu2H11-SPDB-DM4 (DAR 3.93) (antibody, V domains shown)
VH: QVQLVQSGAEVVKPGASVKISCKASGYTFTAYYMHWVKQSPVQSLEWIGLVNPYNGFSSYNQKFQGKASLTVDKSSSTAYMELHSLTSEDSAVYYCAREFYGYRYFDVWGQGTAVTVSS
VL: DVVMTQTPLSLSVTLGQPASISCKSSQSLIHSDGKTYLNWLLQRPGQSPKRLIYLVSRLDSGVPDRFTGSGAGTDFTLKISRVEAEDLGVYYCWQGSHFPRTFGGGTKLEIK
modifications: DM4 through SPDB linker on lysine residues, sites not given; average DAR 3.93
B2: hu2H11R35R74 (antibody, V domains shown)
VH: B1 VH with K74R
VL: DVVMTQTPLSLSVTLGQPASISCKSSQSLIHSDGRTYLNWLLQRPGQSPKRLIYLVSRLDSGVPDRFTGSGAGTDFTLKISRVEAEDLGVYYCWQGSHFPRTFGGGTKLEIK
notes: only the variable domains are tied by name to humanized 2H11R35R74; also called humanized 2H11R35R74; naked hu2H11R35R74
B3: hu2H11-R35R74-PEG4-AcNH-DM4 (DAR 5.9) (antibody, V domains shown)
VH: B1 VH with K74R
VL: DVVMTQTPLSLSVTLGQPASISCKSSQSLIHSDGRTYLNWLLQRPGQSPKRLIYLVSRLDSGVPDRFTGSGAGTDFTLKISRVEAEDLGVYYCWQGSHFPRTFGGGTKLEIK
modifications: DM4 through PEG4-AcNH linker on lysine residues, sites not given; average DAR 5.9
B4: hu2H11R35R74-PEG4-NHAc-DM4 (D/A 5.6) (antibody, V domains shown)
VH: B1 VH with K74R
VL: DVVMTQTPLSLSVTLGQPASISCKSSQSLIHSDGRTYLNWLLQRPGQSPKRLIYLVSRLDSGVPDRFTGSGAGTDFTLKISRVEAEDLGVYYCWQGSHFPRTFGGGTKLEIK
modifications: DM4 through PEG4-NHAc linker on lysine residues, sites not given; average D/A 5.6 per antibody
notes: Antibody-drug conjugate of hu2H11R35R74; constant regions as for m2
B5: hu2H11-R35R74-PEG8-AcNH-DM4 (DAR 4.9) (antibody, V domains shown)
VH: B1 VH with K74R
VL: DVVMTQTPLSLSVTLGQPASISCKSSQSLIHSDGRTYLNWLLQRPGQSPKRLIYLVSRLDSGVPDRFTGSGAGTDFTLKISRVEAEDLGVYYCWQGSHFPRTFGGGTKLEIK
modifications: DM4 through PEG8-AcNH linker on lysine residues, sites not given; average DAR 4.9
B6: hu2H11-R35R74-PEG4-AcNMe-DM4 (DAR 5.4) (antibody, V domains shown)
VH: B1 VH with K74R
VL: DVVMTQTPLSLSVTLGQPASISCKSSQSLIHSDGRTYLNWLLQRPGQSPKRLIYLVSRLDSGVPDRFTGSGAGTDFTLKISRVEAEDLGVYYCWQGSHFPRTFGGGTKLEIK
modifications: DM4 through PEG4-AcNMe linker on lysine residues, sites not given; average DAR 5.4
B7: hu2H11-PEG4-Mal-DM4 (DAR 6.99) (antibody, V domains shown)
VH: B1 VH
VL: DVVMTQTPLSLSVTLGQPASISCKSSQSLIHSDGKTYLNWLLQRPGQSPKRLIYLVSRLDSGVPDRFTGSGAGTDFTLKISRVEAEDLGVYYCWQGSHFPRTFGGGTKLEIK
modifications: DM4 through PEG4-Mal linker on lysine residues, sites not given; average DAR 6.99
B8: hu2H11R35R74-PEG4-NHAc-DM4 (D/A 8.4) (antibody, V domains shown)
VH: B1 VH with K74R
VL: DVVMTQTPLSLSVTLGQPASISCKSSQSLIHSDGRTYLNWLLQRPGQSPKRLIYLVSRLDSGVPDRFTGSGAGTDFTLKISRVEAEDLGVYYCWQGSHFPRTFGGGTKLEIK
modifications: DM4 through PEG4-NHAc linker on lysine residues, sites not given; average D/A 8.4 per antibody
notes: as for B4
B9: hu2H11-R35R74-PEG4-Allyl-DM4 (DAR 5.3) (antibody, V domains shown)
VH: B1 VH with K74R
VL: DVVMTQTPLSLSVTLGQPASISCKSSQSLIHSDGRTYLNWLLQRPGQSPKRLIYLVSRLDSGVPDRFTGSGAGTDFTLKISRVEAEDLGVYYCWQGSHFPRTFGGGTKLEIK
modifications: DM4 through PEG4-Allyl linker on lysine residues, sites not given; average DAR 5.3
B10: hu2H11R35R74-PEG4-NHAc-DM4 (D/A 6.3) (antibody, V domains shown)
VH: B1 VH with K74R
VL: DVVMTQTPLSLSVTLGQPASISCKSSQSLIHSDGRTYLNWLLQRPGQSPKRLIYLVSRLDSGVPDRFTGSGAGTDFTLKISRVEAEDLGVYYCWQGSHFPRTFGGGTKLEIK
modifications: DM4 through PEG4-NHAc linker on lysine residues, sites not given; average D/A 6.3 per antibody
notes: as for B4
B11: hu2H11R35R74-PEG4-NHAc-DM4 (D/A 7.4) (antibody, V domains shown)
VH: B1 VH with K74R
VL: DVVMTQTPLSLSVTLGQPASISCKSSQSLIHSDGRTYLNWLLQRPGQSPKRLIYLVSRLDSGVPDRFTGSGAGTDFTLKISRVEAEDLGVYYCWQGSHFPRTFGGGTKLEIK
modifications: DM4 through PEG4-NHAc linker on lysine residues, sites not given; average D/A 7.4 per antibody
notes: as for B4
B12: hu2H11R35R74-PEG4-Mal-DM4 (DAR 6.70) (antibody, V domains shown)
VH: B1 VH with K74R
VL: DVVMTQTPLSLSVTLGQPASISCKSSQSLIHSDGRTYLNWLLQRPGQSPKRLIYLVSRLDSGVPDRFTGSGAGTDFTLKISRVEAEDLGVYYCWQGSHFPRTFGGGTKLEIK
modifications: DM4 through PEG4-Mal linker on lysine residues, sites not given; average DAR 6.70
B13: hu2H11R35R74-PEG4-Mal-DM4 (DAR 6.1) (antibody, V domains shown)
VH: B1 VH with K74R
VL: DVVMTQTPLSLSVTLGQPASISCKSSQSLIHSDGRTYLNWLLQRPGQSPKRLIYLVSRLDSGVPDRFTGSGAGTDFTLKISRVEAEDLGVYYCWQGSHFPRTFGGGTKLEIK
modifications: DM4 through PEG4-Mal linker on lysine residues, sites not given; average DAR 6.1
B14: hu2H11-PEG4-NHAc-DM4 (DAR 5.3) (antibody, V domains shown)
VH: B1 VH
VL: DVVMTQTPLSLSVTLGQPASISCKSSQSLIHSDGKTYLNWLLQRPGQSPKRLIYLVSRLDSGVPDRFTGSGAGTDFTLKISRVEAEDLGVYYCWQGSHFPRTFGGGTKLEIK
modifications: DM4 through PEG4-NHAc linker on lysine residues, sites not given; average DAR 5.3
B15: hu2H11R35R74-PEG4-Mal-DM4 (DAR 7.00) (antibody, V domains shown)
VH: B1 VH with K74R
VL: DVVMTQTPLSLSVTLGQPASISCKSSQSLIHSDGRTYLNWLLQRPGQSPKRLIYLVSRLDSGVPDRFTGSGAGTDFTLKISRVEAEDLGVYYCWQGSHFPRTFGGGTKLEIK
modifications: DM4 through PEG4-Mal linker on lysine residues, sites not given; average DAR 7.00
B16: hu2H11R35R74-SPDB-DM4 (DAR 3.97) (antibody, V domains shown)
VH: B1 VH with K74R
VL: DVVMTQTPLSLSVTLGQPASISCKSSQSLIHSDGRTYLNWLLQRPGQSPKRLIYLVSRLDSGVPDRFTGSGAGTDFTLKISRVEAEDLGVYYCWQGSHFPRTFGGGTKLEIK
modifications: DM4 through SPDB linker on lysine residues, sites not given; average DAR 3.97
B17: hu2H11R35R74-PEG4-NHAc-DM4 (D/A 9.3) (antibody, V domains shown)
VH: B1 VH with K74R
VL: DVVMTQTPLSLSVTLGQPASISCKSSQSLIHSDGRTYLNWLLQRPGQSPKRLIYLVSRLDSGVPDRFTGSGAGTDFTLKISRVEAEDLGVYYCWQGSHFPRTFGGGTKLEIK
modifications: DM4 through PEG4-NHAc linker on lysine residues, sites not given; average D/A 9.3 per antibody
notes: as for B4
B18: hu2H11R35R74-PEG4-NHAc-DM4 (DAR 5.5) (antibody, V domains shown)
VH: B1 VH with K74R
VL: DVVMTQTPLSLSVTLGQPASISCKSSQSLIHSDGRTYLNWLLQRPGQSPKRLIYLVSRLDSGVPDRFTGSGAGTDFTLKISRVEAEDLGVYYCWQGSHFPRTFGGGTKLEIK
modifications: DM4 through PEG4-NHAc linker on lysine residues, sites not given; average DAR 5.5
B19: hu2H11-R35R74-Acetyl-DM4 (DAR 6.5) (antibody, V domains shown)
VH: B1 VH with K74R
VL: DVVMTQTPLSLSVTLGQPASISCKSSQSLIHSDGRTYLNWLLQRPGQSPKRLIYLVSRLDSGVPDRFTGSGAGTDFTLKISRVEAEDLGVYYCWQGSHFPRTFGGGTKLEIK
modifications: DM4 through Acetyl linker, sites not given; average DAR 6.5
B20: hu2H11 (antibody, V domains shown)
VH: B1 VH
VL: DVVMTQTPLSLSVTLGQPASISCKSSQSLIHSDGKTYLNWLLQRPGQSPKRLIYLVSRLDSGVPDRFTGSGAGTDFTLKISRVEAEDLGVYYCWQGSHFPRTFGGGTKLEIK
notes: Humanized IgG made in CHO cells; also called hu53.2H11; humanized 53.2H11
B21: hu2H11-PEG4-NHAc-DM4 (D/A 7.5) (antibody, V domains shown)
VH: B1 VH
VL: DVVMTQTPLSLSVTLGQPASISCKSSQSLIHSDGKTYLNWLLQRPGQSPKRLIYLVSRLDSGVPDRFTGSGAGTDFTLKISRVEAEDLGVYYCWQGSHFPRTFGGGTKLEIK
modifications: DM4 through PEG4-NHAc linker on surface lysine residues, sites not given; average D/A 7.5 per antibody
notes: Antibody-drug conjugate of hu2H11; also called conjugated hu2H11

What was measured:
[1] = target: T1, EphA2 receptor on tumor cells (human, UniProt P29317 24-976); assay: cell-based or functional assay
T1 sequence (P29317 24-976): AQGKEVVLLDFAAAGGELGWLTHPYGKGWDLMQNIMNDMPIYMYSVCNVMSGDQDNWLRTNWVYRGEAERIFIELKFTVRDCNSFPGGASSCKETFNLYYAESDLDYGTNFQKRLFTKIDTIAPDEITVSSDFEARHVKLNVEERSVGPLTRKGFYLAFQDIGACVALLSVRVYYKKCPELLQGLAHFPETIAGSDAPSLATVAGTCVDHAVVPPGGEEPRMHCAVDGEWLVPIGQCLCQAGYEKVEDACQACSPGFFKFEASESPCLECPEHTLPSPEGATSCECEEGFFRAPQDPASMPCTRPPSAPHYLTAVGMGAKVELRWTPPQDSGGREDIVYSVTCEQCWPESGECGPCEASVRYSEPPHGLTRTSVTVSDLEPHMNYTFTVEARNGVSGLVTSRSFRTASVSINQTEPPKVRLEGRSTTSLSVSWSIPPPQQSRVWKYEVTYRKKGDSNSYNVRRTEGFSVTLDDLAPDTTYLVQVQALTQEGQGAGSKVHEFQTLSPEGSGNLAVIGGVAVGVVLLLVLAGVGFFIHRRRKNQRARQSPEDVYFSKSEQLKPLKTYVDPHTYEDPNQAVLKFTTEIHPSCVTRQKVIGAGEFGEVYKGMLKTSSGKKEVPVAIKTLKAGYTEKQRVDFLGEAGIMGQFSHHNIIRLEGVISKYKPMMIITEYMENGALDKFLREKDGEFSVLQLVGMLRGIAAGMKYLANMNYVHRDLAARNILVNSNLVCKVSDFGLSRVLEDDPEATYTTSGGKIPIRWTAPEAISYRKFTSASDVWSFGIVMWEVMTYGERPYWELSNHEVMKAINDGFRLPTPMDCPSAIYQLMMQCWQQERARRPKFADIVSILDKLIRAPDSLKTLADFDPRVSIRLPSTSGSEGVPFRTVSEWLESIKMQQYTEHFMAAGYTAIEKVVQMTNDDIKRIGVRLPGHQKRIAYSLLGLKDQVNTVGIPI

[2] = target: T2, huEphA2-mFc (human, UniProt P29317 24-534, limits assumed); assay: SPR, Biacore 3000; EphA2-Fc amine-coupled on C1 chip, IgG in flow, 25 C, 1:1 Langmuir fit
T2 construct: Immobilised antigen of the Biacore experiment; also called EphA2-Fc; extra-cellular domain of EphA2 receptor-Fc; not shown: mouse Fc (mFc)
T2 sequence (P29317 24-534 limits assumed): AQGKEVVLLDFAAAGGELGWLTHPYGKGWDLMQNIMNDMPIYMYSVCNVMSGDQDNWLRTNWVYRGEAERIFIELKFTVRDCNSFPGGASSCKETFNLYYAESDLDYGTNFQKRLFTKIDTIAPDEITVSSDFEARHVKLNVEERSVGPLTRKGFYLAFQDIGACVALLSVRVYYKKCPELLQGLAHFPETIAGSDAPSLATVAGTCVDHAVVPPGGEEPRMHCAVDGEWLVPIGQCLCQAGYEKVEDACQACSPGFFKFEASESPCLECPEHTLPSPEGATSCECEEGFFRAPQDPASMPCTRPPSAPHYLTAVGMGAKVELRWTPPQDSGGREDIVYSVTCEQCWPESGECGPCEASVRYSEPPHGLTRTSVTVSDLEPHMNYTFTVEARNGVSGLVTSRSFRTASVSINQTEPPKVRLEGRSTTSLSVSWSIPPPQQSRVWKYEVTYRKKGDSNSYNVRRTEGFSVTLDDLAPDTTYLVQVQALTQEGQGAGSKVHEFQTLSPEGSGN
Method: pH=4.5) was coupled to the matrix of a C1 sensor chip (GE healthcare BR-1005-40) at 10 μl/min using a standard amine coupling protocol with EDC (N-ethyl-N′-[dimethyl-aminopropyl]carbodiimide)/NHS (N-hydroxysuccinimide). The density was controlled at an increased response level of ˜100 response units (RU) in kinetic binding experiments. IgGs were diluted in 0.01 M Hepes, pH 7.4 containing 0.15 M NaCl, 3 mM EDTA, and 0.005% P20. All subsequent dilutions were made in the same buffer. All binding experiments were performed at 25° C. with IgG concentrations typically ranging from 50 to 0.2 nM at a flow rate of 50 μl/min.
Data were collected for approximately 12 min (2 min association time and 10 min dissociation time) and 1 min pulse at 30 μl/min of 1M NaCl, 50 mM NaOH was used to regenerate the surfaces. IgGs were also flowed over an uncoated cell and the sensorgrams from the blank runs were substracted from those obtained with EphA2-Fc coupled chips. Data were fitted to a 1:1 Langmuir binding model with drifting baseline. This algorithm calculates both the kₒₙ and the koff, from which the apparent equilibrium dissociation constant KD, is deduced as the ratio of the two rate constants (koff/kₒₙ).
The affinity constant was first measured with both naked hu2H11 and hu2H11R35R74.

[3] = target: T1, EphA2 receptor on tumor cells; assay: cell-based or functional assay; remark: listed apart in the source
[4] = target: T1, EphA2 receptor on tumor cells; assay: cell-based or functional assay; remark: listed apart in the source

Row | Binder | Ka [2] [M⁻¹] | Kd [2] [nM] | Ratio (KD against naked hu2H11) [2] [fold] | koff [2] [s⁻¹] | kon [2] [M⁻¹ s⁻¹] | further results
1 | B1 |  |  |  |  |  | MDA-MB231 + naked 2H11 (1 uM) IC50 (nM), 14C thymidine uptake [1]: 8.1 nM; MDA-MB231 IC50 (nM), 14C thymidine uptake [1]: 1.1 nM; Ratio of IC50s (with naked 2H11 / alone) on MDA-MB231 [1]: 7
2 | B2 | 4.59e+09 | 0.218 | 0.7 | 0.00115 | 5.25e+06 | 
3 | B3 |  |  |  |  |  | IC50 (pM), + naked hu2H11R35R74 (1 uM), MDA MB231 cells [3]: 29700 pM; IC50 (pM), ADC alone, MDA MB231 cells, 14C thymidine uptake [3]: 147 pM; ratio of IC50s (+ naked hu2H11R35R74 / ADC alone) [3]: 202
4 | B4 | 3.8e+09 | 0.263 | 0.9 | 0.00115 | 4.35e+06 | 
5 | B5 |  |  |  |  |  | IC50 (pM), + naked hu2H11R35R74 (1 uM), MDA MB231 cells [3]: 25000 pM; IC50 (pM), ADC alone, MDA MB231 cells, 14C thymidine uptake [3]: 400 pM; ratio of IC50s (+ naked hu2H11R35R74 / ADC alone) [3]: 62
6 | B6 |  |  |  |  |  | IC50 (pM), + naked hu2H11R35R74 (1 uM), MDA MB231 cells [3]: 36400 pM; IC50 (pM), ADC alone, MDA MB231 cells, 14C thymidine uptake [3]: 217 pM; ratio of IC50s (+ naked hu2H11R35R74 / ADC alone) [3]: 168
7 | B7 |  |  |  |  |  | IC50 (M), cytotoxic activity on Lovo cells (WST8, 5 days) [4]: 1.22e-10 M
8 | B8 | 3.76e+09 | 0.266 | 0.9 | 0.00111 | 4.15e+06 | 
9 | B9 |  |  |  |  |  | IC50 (pM), + naked hu2H11R35R74 (1 uM), MDA MB231 cells [3]: 7820 pM; IC50 (pM), ADC alone, MDA MB231 cells, 14C thymidine uptake [3]: 161 pM; ratio of IC50s (+ naked hu2H11R35R74 / ADC alone) [3]: 49
10 | B10 | 3.55e+09 | 0.282 | 0.9 | 0.00119 | 4.21e+06 | 
11 | B11 | 3.64e+09 | 0.275 | 0.9 | 0.00123 | 4.47e+06 | 
12 | B12 |  |  |  |  |  | IC50 (M), cytotoxic activity on Lovo cells (WST8, 5 days) [4]: 7.96e-11 M
13 | B13 |  |  |  |  |  | MDA-MB231 + naked 2H11 (1 uM) IC50 (nM), 14C thymidine uptake [1]: 25.1 nM; MDA-MB231 IC50 (nM), 14C thymidine uptake [1]: 0.1 nM; Ratio of IC50s (with naked 2H11 / alone) on MDA-MB231 [1]: 228
14 | B14 |  |  |  |  |  | MDA-MB231 + naked 2H11 (1 uM) IC50 (nM), 14C thymidine uptake [1]: 27.4 nM; MDA-MB231 IC50 (nM), 14C thymidine uptake [1]: 0.2 nM; Ratio of IC50s (with naked 2H11 / alone) on MDA-MB231 [1]: 114
15 | B15 |  |  |  |  |  | IC50 (M), cytotoxic activity on Lovo cells (WST8, 5 days) [4]: 1.16e-11 M
16 | B16 |  |  |  |  |  | MDA-MB231 + naked 2H11 (1 uM) IC50 (nM), 14C thymidine uptake [1]: 11.5 nM; MDA-MB231 IC50 (nM), 14C thymidine uptake [1]: 1.2 nM; Ratio of IC50s (with naked 2H11 / alone) on MDA-MB231 [1]: 9
17 | B17 | 2.38e+09 | 0.421 | 1.4 | 0.00129 | 3.08e+06 | 
18 | B18 |  |  |  |  |  | MDA-MB231 + naked 2H11 (1 uM) IC50 (nM), 14C thymidine uptake [1]: 80.8 nM; MDA-MB231 IC50 (nM), 14C thymidine uptake [1]: 0.06 nM; Ratio of IC50s (with naked 2H11 / alone) on MDA-MB231 [1]: 1350
19 | B19 |  |  |  |  |  | IC50 (pM), + naked hu2H11R35R74 (1 uM), MDA MB231 cells [3]: 19500 pM; IC50 (pM), ADC alone, MDA MB231 cells, 14C thymidine uptake [3]: 185 pM; ratio of IC50s (+ naked hu2H11R35R74 / ADC alone) [3]: 105
20 | B20 | 3.39e+09 | 0.298 | 1 | 0.0011 | 3.71e+06 | 
21 | B21 | 6.16e+08 | 1.62 | 5.4 | 0.00242 | 1.49e+06 | 
